Data reported in the supplement of paper PMC12338614.
± gives the uncertainty stated by the source.

B1: library; numbered along this chain (parent)
chain: MEVVDPQQLGMFTEGELMSVGMDTFIHRIDSTEVIYQPRRKRAKLIGKYLMGDLLGEGSYGKVKEVLDSETLCRRAVKILKKKKLRRIPNGEANVKKEIQLLRRLRHKNVIQLVDVLYNEEKQKMYMVMEYCVCGMQEMLDSVPEKRFPVCQAHGYFCQLIDGLEYLHSQGIVHKDIKPGNLLLTTGGTLKISDLGVAEALHPFAADDTCRTSQGSPAFQPPEIANGLDTFSGFKVDIWSAGVTLYNITTGLYPFEGDNIYKLFENIGKGSYAIPGDCGPPLSDLLKGMLEYEPAKRFSIRQIRQHSWFRKKHPPAEAPVPIPPSPDTKDRWRSMTVVPYLEDLHGADEDEDLFDIEDDIIYTQDFTVPGQVPEEEASHNGQRRGLPKAVCMNGTEAAQLSTKSRAEGRAPNPARKACSASSKIRRLSACKQQ

Variants of: B1
Assay: STK11 functional score (HeLa growth suppression), rescaled enrichment; synonymous median = 1, nonsense median = 0 (normalised score)
Conditions: with HeLa; variant type: missense
Procedure, shortened: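 The values are functional scores: wild-type-corrected log ratios of post- versus pre-selection abundance, rescaled to synonymous and nonsense medians, merged over codons and replicate transfections, and carrying bootstrapped error. They derive from codon-randomised (POPCode), codon-optimised STK11 libraries that Bxb1 integrated at an AAVS1 landing pad in HeLa, with three transfections for each of three regions. Sequencing of tiled gDNA amplicons ran on NextSeq, at ~2 million reads per tile.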

Variant | STK11 functional score
V63R | -0.0566 ± 0.15
S422C | 1.44 ± 0.095
Y340K | 1.6 ± 0.14
I424F | 1.04 ± 0.086
G346Q | 1.61 ± 0.14
D229Y | 0.508 ± 0.12
K423A | 0.687 ± 0.66
R383I | 1.57 ± 0.22
E223Q | 0.735 ± 0.22
K423D | 1.14 ± 0.6
E120S | 1.42 ± 0.18
P411F | 0.906 ± 0.61
R426C | 1.12 ± 0.4
C430W | 1.02 ± 0.59
E357Y | 1.39 ± 0.26
K83Q | 0.343 ± 0.37
K388S | 1.19 ± 0.28
V143I | 1.09 ± 0.16
Y131C | 0.51 ± 0.24
A218Y | 1.34 ± 0.17
D350C | 1.51 ± 0.31
K403F | 1.2 ± 0.23
K175N | 0.914 ± 0.55
L285E | -0.0678 ± 0.11

Variant | STK11 functional score
D208A | 1.19 ± 0.23
A273L | 0.931 ± 0.1
R40V | 1.64 ± 0.25
P413R | 1.49 ± 0.33
A206L | 1.03 ± 0.21
P314C | 1.53 ± 0.18
I99Y | 0.0269 ± 0.081
V116L | 1.14 ± 0.23
R297C | -0.195 ± 0.096
Q137I | 0.934 ± 0.38
A347I | 1.52 ± 0.17
P222V | 0.826 ± 0.12
I224S | 1.31 ± 0.28
L263T | 1.22 ± 0.17
D141M | 1.22 ± 0.14
D359E | 0.865 ± 0.47
Q100T | 1.3 ± 0.43
S59T | 1.32 ± 0.64
R39I | 1.12 ± 0.38
G15E | 1.68 ± 0.46
A76Q | 0.447 ± 0.14
G251I | 0.422 ± 0.25
Q382R | 1.48 ± 0.17
T336R | 1.54 ± 0.28

Variant | STK11 functional score
G251A | 0.598 ± 0.42
K124L | 0.951 ± 0.13
F231L | 0.842 ± 0.35
H345M | 1.54 ± 0.17
H174S | 0.695 ± 0.29
E165V | 0.465 ± 0.35
K423T | 1.57 ± 0.22
M392C | 1.34 ± 0.31
F231A | 1.61 ± 0.26
F234V | 1.2 ± 0.36
E376C | 1.46 ± 0.15
K97L | 0.76 ± 0.24
V173L | 0.137 ± 0.13
R425P | 1.51 ± 0.24
E138M | 1.27 ± 0.18
G227W | 1.29 ± 0.15
P179R | -0.0831 ± 0.084
K329G | 1.35 ± 0.37
E130W | -0.0647 ± 0.079
V128R | 0.15 ± 0.084
R211G | 1.51 ± 0.2
E57R | 1.13 ± 0.17
S421N | 1.6 ± 0.15
I161T | 1.31 ± 0.66

Variant | STK11 functional score
D162S | 1.26 ± 0.13
Y272I | 1.08 ± 0.3
G270M | 0.994 ± 0.46
M335W | 0.367 ± 0.13
L245H | -0.0776 ± 0.099
P387W | 1.62 ± 0.29
P387R | 1.47 ± 0.31
N380E | 1.48 ± 0.33
L182W | 0.0906 ± 0.12
R104Q | 1.21 ± 0.56
E349C | 1.1 ± 0.42
L72Y | 1.04 ± 0.11
E376D | 0.267 ± 0.78
M139Q | 1.11 ± 0.32
A295H | 1.4 ± 0.17
S334L | 1.24 ± 0.18
A205I | 1.47 ± 0.18
G227S | 1.49 ± 0.38
A43T | 1.43 ± 0.16
E199V | 1.49 ± 0.23
A225S | 1.06 ± 0.29
V133I | 1.24 ± 0.26
L184V | 1.01 ± 0.21
P280E | 1.69 ± 0.21

Variant | STK11 functional score
V337G | 1.13 ± 0.34
P339E | 0.55 ± 0.16
E291I | 1.22 ± 0.56
R331N | 1.35 ± 0.21
G227A | 0.273 ± 0.11
G394C | 1.28 ± 0.15
D207A | 1.27 ± 0.29
P315D | 1.51 ± 0.16
R106I | 1.71 ± 0.18
R297K | -0.29 ± 0.13
L263R | 1.39 ± 0.24
K83E | 1.48 ± 0.68
A410R | 1.6 ± 0.14
P221F | -0.0165 ± 0.09
R384L | 1.43 ± 0.15
T250E | 0.89 ± 0.1
A153I | 0.28 ± 0.27
K403T | 1.19 ± 0.42
E374V | 0.836 ± 0.41
F298W | 0.876 ± 0.092
E256R | 1.48 ± 0.19
R211S | 1.32 ± 0.15
S428A | 1.14 ± 0.54
P326C | 1.34 ± 0.39

Variant | STK11 functional score
L353W | 1.12 ± 0.64
H154I | 0.492 ± 0.09
G91I | 1.63 ± 0.22
L164H | 0.0804 ± 0.11
D68W | 0.944 ± 0.17
D68V | 0.366 ± 0.1
I322H | 0.839 ± 0.66
L182A | 0.345 ± 0.096
A200F | 0.455 ± 0.11
D207M | 1.17 ± 0.12
A93R | 1.6 ± 0.19
H107G | 0.812 ± 0.13
C278D | 1.03 ± 0.54
C158W | 0.384 ± 0.11
A398M | 1.63 ± 0.18
E342R | 1.54 ± 0.21
L9S | 1.37 ± 0.19
Y156V | 1.06 ± 0.36
P315N | 1.51 ± 0.16
W308C | -0.11 ± 0.088
A389D | 1.2 ± 0.4
S299G | 1.18 ± 0.52
Y246C | 0.451 ± 0.12
A410H | 1.23 ± 0.54

Variant | STK11 functional score
K108A | 1.25 ± 0.12
Q214R | 1.45 ± 0.14
Q8K | 0.838 ± 0.23
R104Y | 0.684 ± 0.14
R87A | 0.186 ± 0.13
S325E | 1.24 ± 0.67
K235G | 1.28 ± 0.35
P217G | 1.53 ± 0.18
D207W | 0.239 ± 0.18
H174W | 1.02 ± 0.37
E374L | 1.2 ± 0.38
Y60L | 0.748 ± 0.29
G385K | 1.6 ± 0.27
P411E | 1.61 ± 0.33
P275R | 1.12 ± 0.28
I192Y | 1.11 ± 0.19
H154R | 0.997 ± 0.16
S334C | 0.325 ± 0.13
K48Q | 1.41 ± 0.37
D343H | 0.726 ± 0.38
L263M | 0.891 ± 0.17
Q214P | 0.598 ± 0.18
K146Q | 1.52 ± 0.51
